Test system: Escherichia coli TOP10
Experiment: shrunken log2 fold change of peptide-encoding DNA abundance (4.5 h post-induction vs induction); higher = less antimicrobial activity (less host growth inhibition)
Conditions: time post-induction: 4.5 h; library: site-saturation at positions 5, 18, 19, 20
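Further: peptides expressed intracellularly from a pBAD plasmid library in pooled LB shake-flask culture, induced with 0.3% L-arabinose, DNA abundance read by NGS, three biological replicates, DESeq2 with apeglm shrinkage.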

| Sequence | shrunken log2 fold change |
| --- | --- |
| RRIRNRPPRLPRPRPRPTIYPRP | -0.106 |
| RRIRCRPPRLPRPRPRPYRSPRP | 0.00395 |
| RRIRVRPPRLPRPRPRPCSKPRP | -0.0775 |
| RRIRYRPPRLPRPRPRPQFAPRP | 0.0437 |
| RRIRPRPPRLPRPRPRPHNEPRP | -0.397 |
| RRIRLRPPRLPRPRPRPYMHPRP | -0.408 |
| RRIRMRPPRLPRPRPRPLFFPRP | 0.135 |
| RRIRARPPRLPRPRPRPNIIPRP | -0.248 |
| RRIRPRPPRLPRPRPRPERFPRP | -0.0264 |
| RRIRDRPPRLPRPRPRPPHCPRP | 0.0674 |
| RRIRHRPPRLPRPRPRPYKIPRP | -0.373 |
| RRIRWRPPRLPRPRPRPFDMPRP | -0.105 |
| RRIRERPPRLPRPRPRPSSGPRP | -0.648 |
| RRIRGRPPRLPRPRPRPHPTPRP | 0.973 |
| RRIRARPPRLPRPRPRPGVTPRP | 0.611 |
| RRIRFRPPRLPRPRPRPQSCPRP | -0.0102 |
| RRIRIRPPRLPRPRPRPMWHPRP | -0.176 |
| RRIRGRPPRLPRPRPRPFGFPRP | 0.828 |
| RRIRTRPPRLPRPRPRPCWTPRP | -0.442 |
| RRIRNRPPRLPRPRPRPLVNPRP | -0.289 |
| RRIRMRPPRLPRPRPRPPKTPRP | 0.891 |
| RRIRIRPPRLPRPRPRPEIKPRP | -0.14 |
| RRIRYRPPRLPRPRPRPVGLPRP | 0.158 |
| RRIRQRPPRLPRPRPRPVRHPRP | -0.0023 |
| RRIRNRPPRLPRPRPRPILWPRP | 0.123 |

| Sequence | shrunken log2 fold change |
| --- | --- |
| RRIRWRPPRLPRPRPRPKFLPRP | -0.0144 |
| RRIRVRPPRLPRPRPRPRVLPRP | 0.0884 |
| RRIRGRPPRLPRPRPRPTPRPRP | 1.16 |
| RRIRGRPPRLPRPRPRPNYDPRP | 0.134 |
| RRIRYRPPRLPRPRPRPCCWPRP | 0.0911 |
| RRIRKRPPRLPRPRPRPNDLPRP | -0.054 |
| RRIRWRPPRLPRPRPRPLAYPRP | 0.0203 |
| RRIRTRPPRLPRPRPRPWWRPRP | -0.00919 |
| RRIRARPPRLPRPRPRPRHEPRP | 0.638 |
| RRIRSRPPRLPRPRPRPGCNPRP | 0.0419 |
| RRIRRRPPRLPRPRPRPDEDPRP | 0.219 |
| RRIRPRPPRLPRPRPRPKTEPRP | -0.217 |
| RRIRNRPPRLPRPRPRPQHVPRP | 0.000105 |
| RRIRDRPPRLPRPRPRPKPSPRP | 0.503 |
| RRIRCRPPRLPRPRPRPCISPRP | -0.582 |
| RRIRNRPPRLPRPRPRPFDWPRP | 0.0435 |
| RRIRRRPPRLPRPRPRPSHPPRP | 0.167 |
| RRIRGRPPRLPRPRPRPMNRPRP | 0.022 |
| RRIRMRPPRLPRPRPRPSWVPRP | 0.051 |
| RRIRCRPPRLPRPRPRPSGRPRP | 0.235 |
| RRIRYRPPRLPRPRPRPVMRPRP | 0.0461 |
| RRIRWRPPRLPRPRPRPPADPRP | 0.846 |
| RRIRIRPPRLPRPRPRPCPWPRP | -0.161 |
| RRIRSRPPRLPRPRPRPKHTPRP | -0.206 |
| RRIRVRPPRLPRPRPRPTCHPRP | -0.0606 |

| Sequence | shrunken log2 fold change |
| --- | --- |
| RRIRMRPPRLPRPRPRPNETPRP | -0.0123 |
| RRIRKRPPRLPRPRPRPKPEPRP | 0.781 |
| RRIRWRPPRLPRPRPRPETCPRP | 0.16 |
| RRIRVRPPRLPRPRPRPGCFPRP | 0.15 |
| RRIRFRPPRLPRPRPRPIQVPRP | -0.228 |
| RRIRKRPPRLPRPRPRPNIEPRP | 0.115 |
| RRIRKRPPRLPRPRPRPCARPRP | -0.00716 |
| RRIRGRPPRLPRPRPRPIAVPRP | 0.892 |
| RRIRRRPPRLPRPRPRPDTGPRP | 0.0107 |
| RRIRHRPPRLPRPRPRPHEHPRP | 0.103 |
| RRIRQRPPRLPRPRPRPLHCPRP | -0.183 |
| RRIRDRPPRLPRPRPRPPIRPRP | 0.173 |
| RRIRKRPPRLPRPRPRPAPCPRP | 0.432 |
| RRIRGRPPRLPRPRPRPPGRPRP | 1.35 |
| RRIRKRPPRLPRPRPRPKVSPRP | -0.0412 |
| RRIRSRPPRLPRPRPRPGRIPRP | -0.0494 |
| RRIRTRPPRLPRPRPRPMKIPRP | 0.0884 |
| RRIRYRPPRLPRPRPRPMCEPRP | -0.283 |
| RRIRMRPPRLPRPRPRPETIPRP | 0.0625 |
| RRIRARPPRLPRPRPRPHMPPRP | -0.419 |
| RRIRKRPPRLPRPRPRPHVEPRP | -0.0479 |
| RRIRCRPPRLPRPRPRPKWTPRP | -0.0568 |
| RRIRQRPPRLPRPRPRPTYLPRP | -0.562 |
| RRIRCRPPRLPRPRPRPWFVPRP | -0.629 |
| RRIRNRPPRLPRPRPRPAHPPRP | 0.307 |

| Sequence | shrunken log2 fold change |
| --- | --- |
| RRIRSRPPRLPRPRPRPIMDPRP | -0.0619 |
| RRIRERPPRLPRPRPRPNSEPRP | -0.391 |
| RRIRNRPPRLPRPRPRPSIEPRP | -0.214 |
| RRIRARPPRLPRPRPRPRSPPRP | 0.871 |
| RRIRGRPPRLPRPRPRPRVTPRP | 0.744 |
| RRIRPRPPRLPRPRPRPAATPRP | 0.809 |
| RRIRRRPPRLPRPRPRPLFEPRP | 0.245 |
| RRIRIRPPRLPRPRPRPQEKPRP | 0.0553 |
| RRIRGRPPRLPRPRPRPRPVPRP | 0.886 |
| RRIRKRPPRLPRPRPRPGHLPRP | 0.0738 |
| RRIRLRPPRLPRPRPRPKPMPRP | 0.964 |
| RRIRRRPPRLPRPRPRPLSWPRP | 0.361 |
| RRIRKRPPRLPRPRPRPYNRPRP | -0.0322 |
| RRIRHRPPRLPRPRPRPMSTPRP | -0.12 |
| RRIRVRPPRLPRPRPRPMPDPRP | 0.00211 |
| RRIRQRPPRLPRPRPRPRRPPRP | 0.472 |
| RRIRWRPPRLPRPRPRPWGQPRP | -0.0525 |
| RRIRERPPRLPRPRPRPYNYPRP | -0.519 |
| RRIRLRPPRLPRPRPRPTEHPRP | 0.121 |
| RRIRSRPPRLPRPRPRPEKNPRP | 0.312 |
| RRIRKRPPRLPRPRPRPVDEPRP | 0.358 |
| RRIRNRPPRLPRPRPRPWDDPRP | 0.0288 |
| RRIRFRPPRLPRPRPRPCWEPRP | -0.356 |
| RRIRLRPPRLPRPRPRPCHKPRP | -0.278 |
| RRIRCRPPRLPRPRPRPESEPRP | 0.237 |

| Sequence | shrunken log2 fold change |
| --- | --- |
| RRIRTRPPRLPRPRPRPGWWPRP | 0.158 |
| RRIRDRPPRLPRPRPRPQFGPRP | -0.36 |
| RRIRVRPPRLPRPRPRPGTCPRP | 0.0803 |
| RRIRARPPRLPRPRPRPKETPRP | 0.229 |
| RRIRWRPPRLPRPRPRPFNIPRP | -0.715 |
| RRIRPRPPRLPRPRPRPCPGPRP | -0.0306 |
| RRIRLRPPRLPRPRPRPWEDPRP | 0.0824 |
| RRIRPRPPRLPRPRPRPFIWPRP | -0.271 |
| RRIRERPPRLPRPRPRPNQPPRP | 0.0495 |
| RRIRRRPPRLPRPRPRPENCPRP | 0.0654 |
| RRIRSRPPRLPRPRPRPWLPPRP | 0.0131 |
| RRIRWRPPRLPRPRPRPRKLPRP | 0.133 |
| RRIRFRPPRLPRPRPRPENCPRP | -0.855 |
| RRIRIRPPRLPRPRPRPHLKPRP | -0.358 |
| RRIRYRPPRLPRPRPRPAADPRP | -0.0866 |
| RRIRHRPPRLPRPRPRPQAMPRP | -0.00822 |
| RRIRLRPPRLPRPRPRPWQQPRP | 0.00911 |
| RRIRLRPPRLPRPRPRPCTYPRP | -0.683 |
| RRIRSRPPRLPRPRPRPVCQPRP | -0.569 |
| RRIRFRPPRLPRPRPRPSQEPRP | -0.286 |
| RRIRCRPPRLPRPRPRPTHEPRP | 0.628 |
| RRIRHRPPRLPRPRPRPNFCPRP | -0.0463 |
| RRIRFRPPRLPRPRPRPGPHPRP | 0.305 |
| RRIRMRPPRLPRPRPRPLMMPRP | 0.452 |
| RRIRERPPRLPRPRPRPAGFPRP | 0.67 |

| Sequence | shrunken log2 fold change |
| --- | --- |
| RRIRNRPPRLPRPRPRPYDDPRP | 0.00769 |
| RRIRWRPPRLPRPRPRPFHHPRP | -0.077 |
| RRIRARPPRLPRPRPRPIYGPRP | 0.0455 |
| RRIRARPPRLPRPRPRPWDKPRP | 0.0886 |
| RRIRPRPPRLPRPRPRPVCHPRP | -0.0724 |
| RRIRPRPPRLPRPRPRPWCMPRP | -0.355 |
| RRIRNRPPRLPRPRPRPGLFPRP | 0.0823 |
| RRIRFRPPRLPRPRPRPSNYPRP | -0.396 |
| RRIRVRPPRLPRPRPRPDTCPRP | -0.135 |
| RRIRFRPPRLPRPRPRPDLKPRP | 0.166 |
| RRIRKRPPRLPRPRPRPFECPRP | -0.0669 |
| RRIRWRPPRLPRPRPRPGPYPRP | -0.161 |
| RRIRCRPPRLPRPRPRPNKVPRP | -0.142 |
| RRIRMRPPRLPRPRPRPWWEPRP | -0.425 |
| RRIRIRPPRLPRPRPRPAESPRP | 0.0486 |
| RRIRCRPPRLPRPRPRPHWPPRP | 0.149 |
| RRIRKRPPRLPRPRPRPIWDPRP | -0.0152 |
| RRIRPRPPRLPRPRPRPSIEPRP | -0.0734 |
| RRIRSRPPRLPRPRPRPQLLPRP | -0.182 |
| RRIRFRPPRLPRPRPRPGQVPRP | -0.131 |
| RRIRWRPPRLPRPRPRPITSPRP | -0.122 |
| RRIRDRPPRLPRPRPRPLIRPRP | -0.0502 |
| RRIRVRPPRLPRPRPRPMLMPRP | 0.00342 |
| RRIRDRPPRLPRPRPRPQTTPRP | 0.0462 |
| RRIRDRPPRLPRPRPRPKGLPRP | 0.253 |

— the supplement of paper PMC9112550, “Optimization of the antimicrobial peptide Bac7 by deep mutational scanning” (BMC Biology, 2022)
